Patent US20060140858A1, “Drug pre-targeting by means of bi-specific antibodies and hapten constructs comprising a carrier peptide and the active agent(s)” (Immunomedics, Inc., priority 2002, published 2006)
Marks after values point to notes of the source that are not given here.

Legend:
[1] = Pretargeting: I-125 F6 × 734-F(ab′)2, 72 h later In-111-IMP-224, biodistribution; conditions: female, nude (Taconic NCRNU), mouse, in vivo, total radioactivity; for tissue to tissue ratio at 24 h / tissue to tissue ratio at 1 h / tissue to tissue ratio at 4 h: 10 uCi, tumor-to-normal organ ratio; for tissue uptake at 1 h / tissue uptake at 4 h / tissue uptake at 24 h: % ID/g tissue
[2] = system: GW-39 tumor xenografts; assay: as above
[3] = In-vitro stability of In/In-111 IMP 224, reverse phase HPLC; type: physicochemical
Experimental: Aliquots (0.15 mL, 370 μCi) were withdrawn and mixed with 0.9 mL 0.5 M citrate buffer pH 4.0, 0.9mL 0.5 M citrate buffer pH 5.0, and 0.9 mL 0.5 M phosphate buffer pH 7.5. The stability of the labeled peptide was followed by reverse phase HPLC. HPLC Conditions: Waters Radial-Pak C-18 Nova-Pak 8×100 mm, Flow Rate 3 mL/min, Gradient: 100% A=0.3.% NH4OAc to 100% B=90% CH3CN, 0.3% NH4OAc over 10 min.

COc1cccc2c1C(=O)c1c(O)c3c(c(O)c1C2=O)C[C@@](O)(C(CO)=NNc1ccc(C(=O)N[C@@H](CCCCNC(=O)CN(CCN(CCN(CC(=O)O)CC(=O)O)CC(=O)O)CC(=O)O)C(=O)N[C@@H](Cc2ccc(O)cc2)C(=O)N[C@@H](CCCCNC(=O)CN(CCN(CCN(CC(=O)O)CC(=O)O)CC(=O)O)CC(=O)O)C(N)=O)cc1)C[C@@H]3O[C@H]1C[C@H](N)[C@H](O)[C@H](C)O1 [IMP 224, Dox = N—NH—C6H4—CO-Lys(DTPA)-Tyr-Lys(DTPA)-NH2] showed a tissue to tissue ratio at 24 h ([1]; Blood) of 41.8 ± 6.3, a tissue to tissue ratio at 1 h ([1]; Kidney) of 3 ± 0.5 and a tissue to tissue ratio at 4 h ([1]; Kidney) of 3.9 ± 0.5. The tissue to tissue ratio at 24 h ([1]; Kidney) was 5 ± 0.5, the tissue to tissue ratio at 1 h ([1]; Large Int.) was 87.1 ± 35 and the tissue to tissue ratio at 4 h ([1]; Large Int.) was 45.6 ± 19. It also gave a tissue to tissue ratio at 24 h ([1]; Large Int.) of 92.4 ± 38, a tissue to tissue ratio at 1 h ([1]; Lungs) of 13.4 ± 2.7 and a tissue to tissue ratio at 4 h ([1]; Lungs) of 30.1 ± 4.9. The tissue to tissue ratio at 24 h ([1]; Lungs) was 69 ± 9.4, the tissue to tissue ratio at 1 h ([1]; Muscle) was 38.6 ± 13 and the tissue to tissue ratio at 4 h ([1]; Muscle) was 727 ± 797. For the same compound, the tissue to tissue ratio at 24 h ([1]; Muscle) was 283 ± 46, the tissue to tissue ratio at 4 h ([1]; Small Int.) was 51.6 ± 14 and the tissue to tissue ratio at 24 h ([1]; Small Int.) was 110 ± 13. For the same compound, the tissue to tissue ratio at 1 h ([1]; Spleen) was 28.7 ± 8.7, the tissue to tissue ratio at 4 h ([1]; Spleen) was 44.7 ± 10 and the tissue to tissue ratio at 24 h ([1]; Spleen) was 47 ± 2.2. It also gave a tissue to tissue ratio at 1 h ([1]; Stomach) of 48.7 ± 37, a tissue to tissue ratio at 4 h ([1]; Stomach) of 128 ± 46 and a tissue to tissue ratio at 24 h ([1]; Stomach) of 147 ± 39. It also gave a tissue uptake at 1 h ([1]; Blood) of 1.8 ± 0.6 %ID/g, a tissue uptake at 4 h ([1]; Blood) of 0.9 ± 0.2 %ID/g and a tissue uptake at 24 h ([1]; Blood) of 0.2 %ID/g. It also gave a tissue uptake at 1 h ([1]; Kidney) of 3.5 ± 0.6 %ID/g, a tissue uptake at 4 h ([1]; Kidney) of 2.8 ± 0.3 %ID/g and a tissue uptake at 24 h ([1]; Kidney) of 1.9 ± 0.2 %ID/g. For the same compound, the tissue uptake at 1 h ([1]; Large Int.) was 0.1 %ID/g, the tissue uptake at 4 h ([1]; Large Int.) was 0.3 ± 0.1 %ID/g and the tissue uptake at 24 h ([1]; Large Int.) was 0.1 ± 0.1 %ID/g. It also gave a tissue uptake at 1 h ([1]; Lungs) of 0.8 ± 0.2 %ID/g, a tissue uptake at 4 h ([1]; Lungs) of 0.4 %ID/g and a tissue uptake at 24 h ([1]; Lungs) of 0.1 %ID/g. For the same compound, the tissue uptake at 1 h ([1]; Muscle) was 0.3 ± 0.2 %ID/g, the tissue uptake at 1 h ([1]; Small Int.) was 0.5 ± 0.4 %ID/g and the tissue uptake at 4 h ([1]; Small Int.) was 0.2 %ID/g. The tissue uptake at 24 h ([1]; Small Int.) was 0.1 %ID/g, the tissue uptake at 1 h ([1]; Stomach) was 0.8 ± 1.3 %ID/g and the tissue uptake at 4 h ([1]; Stomach) was 0.1 %ID/g. For the same compound, the tissue uptake at 24 h ([1]; Stomach) was 0.1 %ID/g, the “% ID/g tissue” value ([2]; GW-39, 1 h) was 10.3 ± 1.7 % ID/g and the “% ID/g tissue” value ([2]; GW-39, 4 h) was 11.0 ± 2.0 % ID/g. The “% ID/g tissue” value ([2]; GW-39, 24 h) was 9.7 ± 1.1 % ID/g, the “% ID/g tissue” value ([2]; Liver, 1 h) was 0.4 ± 0.1 % ID/g and the “% ID/g tissue” value ([2]; Liver, 4 h) was 0.3 ± 0.0 % ID/g. For the same compound, the “% ID/g tissue” value ([2]; Liver, 24 h) was 0.3 ± 0.0 % ID/g, the “% ID/g tissue” value ([2]; Muscle, 4 h) was 0.0 ± 0.0 % ID/g and the “% ID/g tissue” value ([2]; Muscle, 24 h) was 0.0 ± 0.0 % ID/g. For the same compound, the tumor-to-normal organ ratio ([2]; Small Int., 1 h) was 31.9 ± 18, the “% ID/g tissue” value ([2]; Spleen, 1 h) was 0.4 ± 0.1 % ID/g and the “% ID/g tissue” value ([2]; Spleen, 4 h) was 0.2 ± 0.0 % ID/g. The “% ID/g tissue” value ([2]; Spleen, 24 h) was 0.2 ± 0.0 % ID/g, the “% ID/g tissue” value ([2]; Tail, 1 h) was 1.1 ± 0.2 % ID/g and the “% ID/g tissue” value ([2]; Tail, 4 h) was 0.4 ± 0.1 % ID/g. The “% ID/g tissue” value ([2]; Tail, 24 h) was 0.2 ± 0.0 % ID/g, the “% ID/g tissue” value ([2]; Urine, 1 h) was 168 ± 106 % ID/g and the “% ID/g tissue” value ([2]; Urine, 4 h) was 31.8 ± 31 % ID/g. The “% ID/g tissue” value ([2]; Urine, 24 h) was 1.2 ± 0.2 % ID/g, the “Intact Peptide” value ([3]; Kit, time cell empty (first line)) was 00 and the “Intact Peptide” value ([3]; Kit, time printed '1 hr') was 9. The “Intact Peptide” value ([3]; pH 4.0, time printed '4 min') was 00, the “Intact Peptide” value ([3]; pH 4.0, time printed '9 hr') was 5 and the “Intact Peptide” value ([3]; pH 4.0, time printed 'hr', some peptide decomposed but not included in peak areas) was 00*. The “Intact Peptide” value ([3]; pH 5.0, time printed '0 min') was 00, the “Intact Peptide” value ([3]; pH 5.0, time printed '0 hr') was 1 and the “Intact Peptide” value ([3]; pH 5.0, time printed 'hr', some peptide decomposed but not included in peak areas) was 00*. The “Intact Peptide” value ([3]; pH 7.5, time printed '0 hr') was 0, the “Intact Peptide” value ([3]; pH 7.5, time printed '.5 hr' (first line)) was 00 and the “Intact Peptide” value ([3]; pH 7.5, time printed '.5 hr' (second line)) was 4.
